Legend:
AE.con env03 40CF = biological target: T1, AE.con env03 40CF; assay: ELISA OD405nm, bar chart, antibody concentration not given
T1 construct: also called AE.con gp140CF; AE.con.env03 gp140CF

A.9004SS V1V2 Tags = biological target: T2, A.9004SS V1V2 Tags; assay: as above
T2 V1V2 tags construct: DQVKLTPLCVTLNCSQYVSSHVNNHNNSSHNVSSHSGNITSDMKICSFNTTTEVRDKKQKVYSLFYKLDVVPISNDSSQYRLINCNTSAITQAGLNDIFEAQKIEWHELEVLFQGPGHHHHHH

B.63521_V1V2 Tags = assay: as above
D.9009SA V1V2 Tags = assay: as above
B.62357 140C = biological target: T3, B.62357 140C; assay: as above
T3 construct: also called B.62357 gp140C

B.040 gp140C = assay: as above
G.con 140CF = biological target: T4, G.con 140CF; assay: as above
T4 construct: also called G.con gp140CF; G.con.env03 gp140CF

B.9021 gp140C [1] = biological target: B.9021 gp140C (HIV-1); assay: as above
A.Q23 V1V2 tags = A.Q23 V1V2 tags (HIV-1); assay: as above
C.CAP206 gp140CF.12 = C.CAP206 gp140CF.12 (HIV-1); assay: ELISA, OD405 at 10 ug/ml
B.63521_V1/V2 tags = assay: ELISA, OD405 at 10 ug/ml
AE.con gp140CF = assay: ELISA, OD405 at 10 ug/ml
C.1086 gp120 = C.1086 gp120 (HIV-1); assay: ELISA, OD405 at 10 ug/ml
B.HXB/BAL gp140CFI = biological target: T5, B.HXB/BAL gp140CFI (HIV-1, UniProt P04578 33-680); assay: ELISA, OD405 at 10 ug/ml
T5 construct: also called B.HxB/Ba gp140 CFI

C.1086 V1V2 Tags = C.1086 V1V2 Tags (HIV-1); assay: ELISA, OD405 at 10 ug/ml
B.con gp140CF = assay: ELISA, OD405 at 10 ug/ml
G.con gp140CF = assay: ELISA, OD405 at 10 ug/ml
Con 6 gp120 = assay: ELISA, OD405 at 10 ug/ml
C.1086 gp140 = biological target: T6, C.1086 gp140; assay: ELISA, OD405 at 10 ug/ml
T6 construct: also called C.1086gp140C

SIV CPZ US-1 gp140CF = biological target: T7, SIV CPZ US-1 gp140CF (SIVcpz); assay: ELISA, OD405 at 10 ug/ml
T7 construct: also called US-1 SIVCPZ gp140CF
T7 chain: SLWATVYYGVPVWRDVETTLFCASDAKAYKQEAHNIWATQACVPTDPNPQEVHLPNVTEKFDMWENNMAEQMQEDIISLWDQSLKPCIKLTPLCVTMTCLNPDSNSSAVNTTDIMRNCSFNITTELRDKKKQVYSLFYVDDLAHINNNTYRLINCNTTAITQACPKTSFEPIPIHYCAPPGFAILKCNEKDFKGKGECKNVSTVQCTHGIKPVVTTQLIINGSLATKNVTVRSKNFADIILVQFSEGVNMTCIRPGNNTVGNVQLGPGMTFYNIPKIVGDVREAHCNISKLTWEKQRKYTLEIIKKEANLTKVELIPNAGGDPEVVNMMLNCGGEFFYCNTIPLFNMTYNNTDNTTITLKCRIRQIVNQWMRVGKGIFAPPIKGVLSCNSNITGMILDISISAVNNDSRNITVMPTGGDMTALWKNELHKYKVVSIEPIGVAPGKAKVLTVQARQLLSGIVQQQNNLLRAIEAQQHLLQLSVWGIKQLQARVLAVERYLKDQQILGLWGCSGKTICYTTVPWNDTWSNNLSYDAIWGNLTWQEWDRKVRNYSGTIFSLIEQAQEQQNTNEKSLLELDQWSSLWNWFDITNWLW

gp70 C.1086 V1/V2 = biological target: T8, gp70 C.1086 V1/V2 (HIV-1 V1V2 on murine leukemia virus gp70); assay: ELISA, OD405 at 10 ug/ml
T8 construct: also called C.gp70 1086C V1V2; C.1086gp70V1V2
T8 chain: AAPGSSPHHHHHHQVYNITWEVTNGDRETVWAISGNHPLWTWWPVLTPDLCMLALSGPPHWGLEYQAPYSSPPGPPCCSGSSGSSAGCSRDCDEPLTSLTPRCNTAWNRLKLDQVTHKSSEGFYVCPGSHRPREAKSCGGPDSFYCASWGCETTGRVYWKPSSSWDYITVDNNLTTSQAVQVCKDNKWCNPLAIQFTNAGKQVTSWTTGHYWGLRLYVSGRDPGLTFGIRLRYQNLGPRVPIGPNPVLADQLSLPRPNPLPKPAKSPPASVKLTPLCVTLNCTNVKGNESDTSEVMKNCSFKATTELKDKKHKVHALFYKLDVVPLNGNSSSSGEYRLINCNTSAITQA

B.62357 gp140C = biological target: T9, B.62357 gp140C; assay: ELISA, OD405 at 10 ug/ml
T9 construct: also called B.62357 140C

B.9021 gp140C [2] = biological target: B.9021 gp140C (HIV-1); assay: ELISA, OD405 at 10 ug/ml
D.9009SA V1/V2 tags = assay: ELISA, OD405 at 10 ug/ml

Measured: binding result

B1: CH59 (antibody, V domains shown)
VH: EVQLVESGGGLVQPGRSLRLSCAASGFTFDDGAMHWVRQAPGKGLEWVSGISWNSNIIAYADSVKGRFTISRDNAKNSLYLEMNSLRVEDTALYYCAKDSPRGELPLNYWGQGTLVTVSS
VL: SYELTQPPSVSVSPGQTARITCSGDALPKNYAYWYQQKSGQAPVLVIYEDSKRPSGIPERFSGSSSGTMATLTISGAQVEDEADYYCYSTDSSGNHRVFGGGTKLTVL
notes: also called mAb CH59
binds: AE.con env03 40CF | A.9004SS V1V2 Tags | D.9009SA V1V2 Tags
no binding (tested: not given): B.63521_V1V2 Tags | B.62357 140C | B.040 gp140C | G.con 140CF | B.9021 gp140C [1] | A.Q23 V1V2 tags

B2: 697D reverted unmutated ancestor antibody (antibody, V domains shown)
VH: QVQLVQSGAEVKKPGSSVKVSCKASGGTFSSYTISWVRQAPGQGLEWMGRIIPILGIANYAQKFQGRVTITADKSTSTAYMELSSLRSEDTAVYYCATSGVGLHFGYFDYWGQGTLVTVSS
VL: QSVLTQPPSVSGAPGQRVTISCTGSSSNIGAGYDVHWYQQLPGTAPKLLIYGNSNRPSGVPDRFSGSKSGTSASLAITGLQAEDEADYYCQSYDSSLSGYVFGTGTKVTVL
notes: also called 697D RUA
not listed: AE.con env03 40CF | A.9004SS V1V2 Tags | B.63521_V1V2 Tags | D.9009SA V1V2 Tags | B.62357 140C | B.040 gp140C | G.con 140CF | B.9021 gp140C [1] | A.Q23 V1V2 tags
no binding (tested: 10 ug/ml): all other assays above

— patent publication US9988424 (DUKE UNIVERSITY, dated 2018)
